We go through six molecules from article PMC9896810.

For assay [1], the target named is GST-CrkL-SH3N. In words: pull-down. The settings on record: chain shown with the change; PD with GST-CrkL-SH3N, C3G detected by western blot (WB:C3G); parent: 1.0.
Assay [2] concerns the target GST-CrkL-SH3N. The experiment in a line: pull-down. The settings on record: chain shown with the change, PD with GST-CrkL-SH3N, C3G detected by western blot (WB:C3G), parent: 1.0. Background: In western blotting, separated proteins are transferred to a membrane and probed.
The target in assay [3] is C3G-AAPA (human), Q13905. In words: ITC; single-PRM mutants of C3G in the cell titrated with full-length CrkL or CrkL-SH3N; 25 °C; 1:1 model in SEDPHAT; N is the competent fraction of C3G. In general terms: In ITC the heat of successive injections is recorded.
The target in another assay is C3G-AAAP (human), Q13905. The description is as above.
Assay [4] deals with C3G-AAPA (human), Q13905.
Assay [5] has as its target Src-phosphorylated C3G-AAPP (pC3G-AAPP) (human), Q13905.
The target in assay [6] is Src-phosphorylated C3G-AAPA (pC3G-AAPA) (human), Q13905.
Assay [7] concerns the target Src-phosphorylated C3G-AAAP (pC3G-AAAP) (human), Q13905.

Positions count from the first letter of the chain named. Names and notes keep the numbering of the source.

B1: C3G (full-length, residues 4-1077), Q13905-1 P283A; P284A; L286A; P287A; K289A; P453A; P454A; L456A; P457A; K459A; P540A; P541A; L543A; P544A; K546A (protein)
chain: DSQRSHLSSFTMKLMDKFHSPKIKRTPSKKGKPAEVSVKIPEKPVNKEATDRFLPEGYPLPLDLEQQAVEFMSTSAVASRSQRQKNLSWLEEKEKEVVSALRYFKTIVDKMAIDKKVLEMLPGSASKVLEAILPLVQNDPRIQHSSALSSCYSRVYQSLANLIRWSDQVMLEGVNSEDKEMVTTVKGVIKAVLDGVKELVRLTIEKQGRPSPTSPVKPSSPASKPDGPAELPLTDREVEILNKTTGMSQSTELLPDATDEEVAPPKPPLPGIRVVDNSPAAAAAPAKRQSAPSPTRVAVVAPMSRATSGSSLPVGINRQDFDVDCYAQRRLSGGSHSYGGESPRLSPCSSIGKLSKSDEQLSSLDRDSGQCSRNTSCETLDHYDPDYEFLQQDLSNADQIPQQTAWNLSPLPESLGESGSPFLGPPFQLPLGGHPQPDGPLAPGQQTDTAAAAAEAKRRSAASQTADGSGCRVSYERHPSQYDNISGEDLQSTAPIPSVPYAPFAAILPFQHGGSSAPVEFVGDFTAPESTGDPEKAAPAAEAKNKHMLAYMQLLEDYSEPQPSMFYQTPQNEHIYQQKNKLLMEVYGFSDSFSGVDSVQELAPPPALPPKQRQLEPPAGKDGHPRDPSAVSGVPGKDSRDGSERAPKSPDALESAQSEEEVDELSLIDHNEIMSRLTLKQEGDDGPDVRGGSGDILLVHATETDRKDLVLYCEAFLTTYRTFISPEELIKKLQYRYEKFSPFADTFKKRVSKNTFFVLVRVVDELCLVELTEEILKLLMELVFRLVCNGELSLARVLRKNILDKVDQKKLLRCATSSQPLAARGVAARPGTLHDFHSHEIAEQLTLLDAELFYKIEIPEVLLWAKEQNEEKSPNLTQFTEHFNNMSYWVRSIIMLQEKAQDRERLLLKFIKIMKHLRKLNNFNSYLAILSALDSAPIRRLEWQKQTSEGLAEYCTLIDSSSSFRAYRAALSEVEPPCIPYLGLILQDLTFVHLGNPDYIDGKVNFSKRWQQFNILDSMRCFQQAHYDMRRNDDIINFFNDFSDHLAEEALWELSLKIKPRNITRRKTDREEKT
Take B1: the ratio to parent with GST-CrkL-SH3N [1] turned out to be 0.3; with GST-CrkL-SH3N [2] (C3G-AAAP phosphorylated by Src (phospho AAAP)), 0.4; in the assay with GST-CrkL-SH3N [2], 0.4.

B2: C3G (full-length, residues 4-1077), Q13905-1 P283A; P284A; L286A; P287A; K289A; P453A; P454A; L456A; P457A; K459A; P608A; P609A; L611A; P612A; K614A (protein)
chain: B1 chain with A537P, A538P, A540L, A541P, A543K, P605A, P606A, L608A, P609A, K611A
As for B2, the ratio to parent with GST-CrkL-SH3N [2] (C3G-AAPA phosphorylated by Src (phospho AAPA)) came out at 0.3.

B3: C3G (full-length, residues 4-1077), Q13905-1 P283A; P284A; L286A; P287A; K289A; P540A; P541A; L543A; P544A; K546A; P608A; P609A; L611A; P612A; K614A (protein)
chain: B1 chain with A450P, A451P, A453L, A454P, A456K, P605A, P606A, L608A, P609A, K611A
For B3, in the assay with GST-CrkL-SH3N [1], the ratio to parent was found to be 0.4.

B4: C3G (full-length, residues 4-1077), Q13905-1 P283A; P284A; L286A; P287A; K289A; P453A; P454A; L456A; P457A; K459A; P540A; P541A; L543A; P544A; K546A; Y554H (protein)
chain: B1 chain with Y551H
In the case of B4, in the assay with GST-CrkL-SH3N [2], the ratio to parent turned out to be 0.4.

B5: CrkL-SH3N (residues 125-182), P46109 125-182 (domain or fragment)
chain: LEYVRTLYDFPGNDAEDLPFKKGEILVIIEKPEEQWWSARNKDGRVGMIPVPYVEKLV
Take B5: in the assay with C3G-AAPA (human), Q13905 [3], the Kd – broadly, the concentration at which binding is half-saturated – was 3.5 µM and the stoichiometry N – broadly, the number of molecules, sites or subunits per partner or assembly – stood at 0.2.

B6: CrkL, full-length (human), P46109 1-303 (natural protein)
chain: MSSARFDSSDRSAWYMGPVSRQEAQTRLQGQRHGMFLVRDSSTCPGDYVLSVSENSRVSHYIINSLPNRRFKIGDQEFDHLPALLEFYKIHYLDTTTLIEPAPRYPSPPMGSVSAPNLPTAEDNLEYVRTLYDFPGNDAEDLPFKKGEILVIIEKPEEQWWSARNKDGRVGMIPVPYVEKLVRSSPHGKHGNRNSNSYGIPEPAHAYAQPQTTTPLPAVSGSPGAAITPLPSTQNGPVFAKAIQKRVPCAYDKTALALEVGDIVKVTRMNINGQWEGEVNGRKGLFPFTHVKIFDPQNPDENE
In the assay with C3G-AAPA (human), Q13905 [3], B6 came in with a Kd of 2 µM and a stoichiometry N of 0.13. In the assay with C3G-AAAP (human), Q13905, this molecule registered a Kd of 2 µM and a stoichiometry N of 0.55. Also, in the assay with C3G-AAPA (human), Q13905 [4], the AC50 of the dose-response activation of the GEF activity of C3G (1 µM) on Rap1b:mant-dGDP was found to be 28.1 µM and the kmax of the dose-response activation of the GEF activity of C3G (1 µM) on Rap1b:mant-dGDP is 9100 M⁻¹ s⁻¹. In assay [5], this molecule registered an AC50 of the dose-response activation of the GEF activity of pC3G (0.2 µM) on Rap1b:mant-dGDP of 2.2 µM and a kmax of the dose-response activation of the GEF activity of pC3G (0.2 µM) on Rap1b:mant-dGDP of 0.0357 s^-1 µM^-1. For the same molecule, in the assay with C3G-AAPP (human), Q13905, the AC50 of the dose-response activation of the GEF activity of C3G (1 µM) on Rap1b:mant-dGDP is 23.7 µM and the kmax of the dose-response activation of the GEF activity of C3G (1 µM) on Rap1b:mant-dGDP was 13600 M⁻¹ s⁻¹. In assay [6], this molecule showed an AC50 of the dose-response activation of the GEF activity of pC3G (0.2 µM) on Rap1b:mant-dGDP of 1.3 µM and a kmax of the dose-response activation of the GEF activity of pC3G (0.2 µM) on Rap1b:mant-dGDP of 0.0269 s^-1 µM^-1. Further, in [7], the AC50 of the dose-response activation of the GEF activity of pC3G (0.2 µM) on Rap1b:mant-dGDP; the text says that pC3G-AAAP was not stimulated by CrkL was 0.6 µM and the kmax of the dose-response activation of the GEF activity of pC3G (0.2 µM) on Rap1b:mant-dGDP; the text says that pC3G-AAAP was not stimulated by CrkL came to 0.0045 s^-1 µM^-1.
